B1: Spectrila (recombinant E. coli-derived L-asparaginase), P00805 23-348 (enzyme)
chain: LPNITILATGGTIAGGGDSATKSNYTVGKVGVENLVNAVPQLKDIANVKGEQVVNIGSQDMNDDVWLTLAKKINTDCDKTDGFVITHGTDTMEETAYFLDLTVKCDKPVVMVGAMRPSTSMSADGPFNLYNAVVTAADKASANRGVLVVMNDTVLDGRDVTKTNTTDVATFKSVNYGPLGYIHNGKIDYQRTPARKHTSDTPFDVSKLNELPKVGIVYNYANASDLPAKALVDAGYDGIVSAGVGNGNLYKTVFDTLATAAKTGTAVVRSSRVPTGATTQDAEVDDAKYGFVASGTLNPQKARVLLQLALTQTKDPQQIQQIFNQY
modifications: not checked
B2: Onconase (E. coli-derived L-asparaginase preparation from India), P00805 23-348 (enzyme)
chain: B1 chain
modifications: not checked

Assays:
Test in all cases: SEC; TSK-Gel G2000SWXL 7.8 x 300 mm column, Waters Alliance HPLC, detection at 220 nm; lyophilizate dissolved in water for injection and diluted, measured directly; peaks assigned as aggregates, tetramer and monomer
P00805 = tested on: P00805
[1] = target: Spectrila (recombinant E. coli-derived L-asparaginase) (E. coli), P00805
[2] = target: Onconase (E. coli-derived L-asparaginase preparation from India) (E. coli), P00805

| Molecule | percent tetramer (SEC peak area) (P00805) | also measured |
| --- | --- | --- |
| Onconase (E. coli-derived L-asparaginase preparation from India) | 82.7%[*] | – |
| Spectrila (recombinant E. coli-derived L-asparaginase) | 99.4% | – |
| B1 | – | stoichiometry N [1]: 4 |
| B2 | – | stoichiometry N [2]: 4 |
